The source of these data is patent US12329823B2 (The Scripps Research Institute, priority 2021, dated 2025).

In data set [1] the target is cynomolgous monkey GLP1R (Macaca fascicularis, UniProt F8V479). Kind of data set: In vitro potency, cynomolgous monkey GLP1R activation (receptor-mediated cAMP synthesis). In kind it is cell-based. The conditions noted are these: Table 12; read-out: In Vitro Potency GLP1R EC50, Cyno. The method, then:
(§1) GLP-1R-CRE or HEK293-GIPR-CRE cells were seeded in 384-well plates at a density of 5000 cells per well and cultured for 18 h in DMEM with 10% FBS at 37° C. and 5% CO2. Cells were treated with peptides in a dose dependent manner for 24 h, and receptor activation was reported by luminescence intensities, using One-Glo (Promega, WI) luciferase reagent following manufacturer's instruction. The EC50 of each peptide was determined using GraphPad Prism 6 software (GraphPad, San Diego, CA). Results are depicted in FIGS. 6A-6B, FIGS. 7A-7B, FIGS. 8A-8B, FIGS. 9A-9B, and Tables 7-12. Measurements of peptide conjugate potency were expressed as half maximal effective concentration (EC50) values.

A short description of data set [2]: Pharmacokinetics in CD-1 mouse, I.V. or S.C. 1 mg/kg, plasma concentration by LC-MS.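 On all read-outs here: peptide levels in plasma quantified by LC-MS across multiple sampling times.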 The conditions noted are these: for AUC(0-inf): AUCINF; for MRT last: MRTLAST; for half-life: T1/2, Table 14.
Experimental: The peptide plasma concentration at various time points was determined using LC-MS.
Data set [3] concerns the target T1, dog GLP1R (Canis lupus familiaris, UniProt A0A8I3NUR9).
T1 sequence (A0A8I3NUR9 1-464): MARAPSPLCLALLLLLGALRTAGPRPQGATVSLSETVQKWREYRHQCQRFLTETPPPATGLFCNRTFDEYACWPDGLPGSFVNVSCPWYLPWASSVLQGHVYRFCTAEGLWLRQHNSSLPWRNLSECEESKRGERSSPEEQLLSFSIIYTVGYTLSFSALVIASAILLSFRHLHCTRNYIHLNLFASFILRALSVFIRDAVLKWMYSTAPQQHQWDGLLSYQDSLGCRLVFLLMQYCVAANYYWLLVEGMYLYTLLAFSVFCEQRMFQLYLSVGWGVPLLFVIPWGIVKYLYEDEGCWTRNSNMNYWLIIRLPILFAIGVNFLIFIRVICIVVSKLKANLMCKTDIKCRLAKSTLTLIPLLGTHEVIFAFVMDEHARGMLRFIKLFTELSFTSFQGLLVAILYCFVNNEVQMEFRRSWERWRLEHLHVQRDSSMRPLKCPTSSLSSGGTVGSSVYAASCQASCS
Nature of the data set: In vitro potency, dog GLP1R activation (receptor-mediated cAMP synthesis). The data set is classed as cell-based. The conditions noted are these: Table 12. The method, then:
as §1

For data set [4], the target named is T2, dog GIPR (Canis lupus familiaris, UniProt A0A8I3MPG1).
T2 sequence (A0A8I3MPG1 24-449): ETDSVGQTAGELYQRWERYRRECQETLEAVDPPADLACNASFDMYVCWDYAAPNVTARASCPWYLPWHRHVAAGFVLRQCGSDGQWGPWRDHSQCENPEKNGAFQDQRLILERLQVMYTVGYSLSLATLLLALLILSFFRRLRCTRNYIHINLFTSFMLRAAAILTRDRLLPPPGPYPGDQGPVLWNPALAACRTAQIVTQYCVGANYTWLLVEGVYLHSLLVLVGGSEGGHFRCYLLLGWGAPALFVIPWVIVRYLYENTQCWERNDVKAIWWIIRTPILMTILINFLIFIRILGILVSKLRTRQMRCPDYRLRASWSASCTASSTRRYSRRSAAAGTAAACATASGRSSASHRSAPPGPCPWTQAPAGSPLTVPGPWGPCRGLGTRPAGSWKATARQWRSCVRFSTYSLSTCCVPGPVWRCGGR
Nature of the data set: In vitro potency, dog GIPR activation (receptor-mediated cAMP synthesis). In kind it is cell-based. The conditions noted are these: Table 12; read-out: In Vitro Potency GIPR EC50, Dog. The method, then:
as §1

Setting [5] is: mouse, in vivo, iv, 1 mg/kg, Table 14, IV 1 mg/kg.
[6] abbreviates: mouse, in vivo, sc, 1 mg/kg, Table 14, SC 1 mg/kg.

cynomolgous monkey GLP1R, sequence (F8V479 24-463): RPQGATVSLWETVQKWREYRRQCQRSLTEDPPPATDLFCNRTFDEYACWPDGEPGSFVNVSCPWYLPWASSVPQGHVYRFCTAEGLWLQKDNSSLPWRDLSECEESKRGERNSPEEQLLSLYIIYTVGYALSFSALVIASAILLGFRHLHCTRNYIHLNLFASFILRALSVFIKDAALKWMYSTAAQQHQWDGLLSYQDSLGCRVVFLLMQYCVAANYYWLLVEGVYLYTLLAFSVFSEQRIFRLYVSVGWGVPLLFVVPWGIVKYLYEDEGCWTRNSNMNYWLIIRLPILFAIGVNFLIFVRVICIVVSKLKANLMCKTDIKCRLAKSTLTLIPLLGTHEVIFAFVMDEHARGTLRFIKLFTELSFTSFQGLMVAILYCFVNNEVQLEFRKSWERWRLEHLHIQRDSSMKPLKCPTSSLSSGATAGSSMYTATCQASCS

As to `CC[C@H](C)[C@H](NC(=O)[C@H](CC(C)C)NC(=O)[C@H](Cc1c[nH]c2ccccc12)NC(=O)[C@@H]1CSCC(=O)NCCN(C(=O)CCC(=O)NCCOCCOCCC(=O)NCCOCCOCCC(=O)NCCCC[C@H](NC(=O)CCCCCCCCCCCCCCCCCCC(=O)O)C(=O)O)CCNC(=O)CSC[C@H](NC(=O)[C@H](CCCCN)NC(=O)[C@H](CC(=O)O)NC(=O)[C@H](CC(C)C)NC(=O)[C@H](Cc2ccc(O)cc2)NC(=O)[C@@H](NC(=O)[C@H](CO)NC(=O)[C@H](Cc2ccc(O)cc2)NC(=O)[C@H](CC(=O)O)NC(=O)[C@H](CO)NC(=O)[C@@H](NC(=O)[C@H](Cc2ccccc2)NC(=O)[C@@H](NC(=O)CNC(=O)[C@H](CCC(=O)O)NC(=O)C(C)(C)NC(=O)[C@@H](N)Cc2ccc(O)cc2)[C@@H](C)O)[C@@H](C)O)[C@@H](C)CC)C(=O)N[C@@H](C)C(=O)N[C@@H](C)C(=O)NC(C)(C)C(=O)N[C@@H](CCC(=O)O)C(=O)N[C@@H](Cc2ccccc2)C(=O)N[C@@H](C(C)C)C(=O)N1)C(=O)N[C@@H](C)C(=O)NCC(=O)NCC(=O)N1CCC[C@H]1C(=O)N[C@@H](CO)C(=O)N[C@@H](CO)C(=O)NCC(=O)N[C@@H](C)C(=O)N1CCC[C@H]1C(=O)N1CCC[C@H]1C(=O)N1CCC[C@H]1C(=O)N[C@@H](CO)C(N)=O` [mCMV268], the EC50 in data set [1] worked out at 0.22 nM; in data set [3] it was 1.48 nM; in data set [4], 0.42 nM. The compound also came in with a bioavailability in data set [2] (CD-1, mouse, plasma, sc, 1 mg/kg) of 64%. This compound also came in with a Cl in data set [2] (Table 14, SC 1 mg/kg) of 4.8 mL/h/kg. For the same compound, the Vd came to 0.087 L/kg in data set [2] (Table 14, SC 1 mg/kg) and 0.067 L/kg in data set [2] (mouse, in vivo, iv, 1 mg/kg, Vd, Table 14, IV 1 mg/kg). Further, the clearance in data set [2] (mouse, in vivo, iv, 1 mg/kg) was 3 mL/h/kg. For the same compound, the AUC(0-t) in data set [2] (mouse, in vivo, iv, 1 mg/kg, AUC0-24, Table 14, IV 1 mg/kg) amounted to 204 µg·h/mL; in data set [2] (mouse, in vivo, iv, 1 mg/kg, AUCLAST, Table 14, IV 1 mg/kg), 315 µg·h/mL; in data set [2] (mouse, in vivo, sc, 1 mg/kg, AUC0-24, Table 14, SC 1 mg/kg), 92.1 µg·h/mL; in data set [2] (mouse, in vivo, sc, 1 mg/kg, AUCLAST, Table 14, SC 1 mg/kg) it was 200 µg·h/mL. Moreover, the AUC(0-inf) worked out at 327 µg·h/mL in data set [2] (setting [5]) and 208 µg·h/mL in data set [2] (setting [6]). The Cmax was determined as 34000 ng/mL in data set [2] (setting [5]) and 4780 ng/mL in data set [2] (setting [6]). Also, the mean residence time (MRT last) was 19.5 h in data set [2] (setting [5]) and 27.8 h in data set [2] (setting [6]). Besides, the half-life was 14.8 h in data set [2] (mouse, in vivo, iv, 1 mg/kg, IV 1 mg/kg) and 12.8 h in data set [2] (mouse, in vivo, sc, 1 mg/kg, SC 1 mg/kg). Also, the Tmax in data set [2] (setting [5]) was determined as 0.5 h; in data set [2] (setting [6]), 24 h.
